According to paper PMC12905498 (2026):

T1: Plasmodium berghei HAP2 domain 3 (P. berghei)
T1 chain: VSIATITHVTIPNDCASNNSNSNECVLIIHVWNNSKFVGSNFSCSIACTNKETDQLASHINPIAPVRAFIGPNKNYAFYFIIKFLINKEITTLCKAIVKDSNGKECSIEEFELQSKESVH

T2: Plasmodium falciparum HAP2 domain 3 (PfHAP2 D3 HisAvi), deglycosylated (P. falciparum, deglycosylated with PNGase F)
T2 chain: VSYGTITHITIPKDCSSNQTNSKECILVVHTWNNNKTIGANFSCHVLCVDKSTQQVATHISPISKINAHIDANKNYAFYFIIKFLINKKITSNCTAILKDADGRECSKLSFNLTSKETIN

T3: Plasmodium vivax HAP2 domain 3 (P. vivax)
T3 chain: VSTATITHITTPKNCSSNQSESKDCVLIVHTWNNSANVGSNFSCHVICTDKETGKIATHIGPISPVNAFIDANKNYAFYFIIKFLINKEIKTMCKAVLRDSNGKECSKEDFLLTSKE

B1: anti-PbHAP2 D3 mAb 6.14 (variable regions in AbVec-hIgG1 and AbVec-IgKappa) (antibody, V domains shown)
VH: EVQLVESGGGLVKPGGSLKLSCAASEFTFSDYGMHWVRQAPEKGLEWVASISSGSNSIYYSDTVKGRFTISRDNAKSILFLQMTSLRSEDTAMYYCSREAYFAMDYWGQGTSVTVSS
VL: DIQMTQSPSSLSAILGGKVTITCKASQDIHKYIAWYQHKPGKGPRLLIYYTSTLQPGIPSRFSGSGSGRDYSFSISNLEPEDVATYFCLQYDNLYTFGGGTKVEIE
B2: anti-PbHAP2 D3 mAb 1.12 (variable regions in AbVec-hIgG1 and AbVec-IgKappa) (antibody, V domains shown)
VH: EFQLLQSGPELVKPGASVKISCKASDYSLSDYNMNWVRQRSGKSLEWIGVINPNHGTTHYNQKFKGKATLTVDQSSSTAYMQLTSLTSEDSAVYYCASPIHYGNHVPFDYWGQGTTVTVSS
VL: DIQMTQTTSSLSASLGDRVTISCRTGQDISNYLNWYQQKPDGTVKLLIYFTSRLHSGVPSRFSGSGSGTDYSLTISNLEQEDIATYFCQQGITLPWTFGGGTKLEIK
B3: WNbFc 334 (nanobody WNb 334 fused to hinge and Fc of human IgG1) (Fc fusion)
chain: QVQLQESGGGLVQPGGSLRLSCAASGFTLDDYAIGWFRQDPGKGREGVSCISLSDGSTYYADAVTGRFTISRDNAKDTVYLQMNSLKPEDTAVYYCAALSQKQMTTVQAMCAVPIANYWGQGTQVTVSS
B4: WNbFc 335 (nanobody WNb 335 fused to hinge and Fc of human IgG1) (Fc fusion)
chain: QVQLQESGGGLVQPGGSLRLSCEASASGTIVALGTMAWYRQAPGNQRELVATITEESSTYYADSVKGRCTISRDNARNTMYLRLNSLKPEDTAVYYCNLANFWGQGTQVTVSS
B5: WNbFc 333 (nanobody WNb 333 fused to hinge and Fc of human IgG1) (Fc fusion)
chain: QVQLQESGGGSVQPGGSLRLSCAASGFTLEDYAIGWFRQAPGKGREGISCISSTDGSTHYADSAKGRFTISRDDAKNTAYLQMNSLKVEDTDVYYCAALSQEHMITVQRMCAVPAAHYWGRGTQVTVSS

Key:
[1] = target: T1, Plasmodium berghei HAP2 domain 3; assay: BLI
[2] = target: T2, Plasmodium falciparum HAP2 domain 3 …; assay: BLI; single experiment
[3] = target: T2, Plasmodium falciparum HAP2 domain 3 …; assay: BLI
[4] = target: T3, Plasmodium vivax HAP2 domain 3; assay: BLI

Row | Binder | Kd [1] [nM] | Kd [2] [nM] | Kd [3] [nM] | Kd [4] [nM]
1 | B1 | 12.1 | – | – | –
2 | B2 | 5.1 | – | – | –
3 | B3 | 1440 | 19.7 | 22.2 | –
4 | B4 | – | 35.2 | 38.8 | –
5 | B5 | 3650 | 9.5 | 10.5 | 2250
